First the molecules themselves.
B1: Mutation 2 (antibody, V domains shown)
VH: EVQLQQSGTELVRPGALVKLSCKASGFNIKDYYVHWVKQRPRQGLEWIGWIDPNNGKTLYDPKYQDKASITSDTSTNTAYLQLRSLTSEDTAVYYCVTAYVRFVYWGQGTLVTVSA
VL: QIVLTQSPAIMSAFPGERVTMTCSASSSVRYMYWHQQKPGSSPRLLIYDTSNVASGVPVRFSGSGSGTSYSLTISRDEAMDAATYYCQQYSSTPRTFGGGTKLEIKR
B2: anti-dengue virus NS1 3D5 monoclonal antibody (recombinant, expressed in CHO cells) (antibody, mouse IgG1, kappa, V domains shown)
VH: B1 VH with L59I, Y64F
VL: B1 VL with S27T, R30K, D49E, V53I, Y90W, T93Y
B3: Mutation 3 (antibody, V domains shown)
VH: B1 VH with D31L, N54K, Y64C
VL: B1 VL with R30V, D49C, V57L, Y90R
B4: Mutation 4 (antibody, V domains shown)
VH: B1 VH with D31R, N54R, Y64V
VL: B1 VL with R30I, D49W, V57Y, Y90V
B5: WT 1-7 (antibody, V domains shown)
VH: B1 VH with D31E, N54D, L59I, Y64V, T98S
VL: B1 VL with S27T, R30K, D49E, V57F, Y90Q
B6: Mutation 1-10 (antibody, V domains shown)
VH: B1 VH with V34I, N54E, L59I, Y64F, T98S, V101F
VL: B1 VL with S27T, V53L, Y90W, T93Y
B7: Mutation 1-5 (antibody, V domains shown)
VH: B1 VH with V34L, N54E, L59I, Y64F, T98S, V101Y
VL: B1 VL with S27T, Y90W, T93F
B8: WT 1-4 (antibody, V domains shown)
VH: B1 VH with D31E, V34L, N54D, Y64V, V101Y
VL: B1 VL with R30K, D49E, V53L, V57F, Y90Q, T93F
B9: Mutation 1-6 (antibody, V domains shown)
VH: B1 VH with N54E, L59I, Y64F
VL: B1 VL with S27T, V53I, Y90W
B10: Mutation 1-2 (antibody, V domains shown)
VH: B1 VH with V34L, N54E, Y64F, V101Y
VL: B1 VL with Y90W, T93F
B11: Mutation 1-15 (antibody, V domains shown)
VH: B1 VH with N54E, L59I, Y64F, V101Y
VL: B1 VL with S27T, V53I, Y90W
B12: Mutation 1-11 (antibody, V domains shown)
VH: B1 VH with V34L, N54E, Y64F, T98S, V101Y
VL: B1 VL with Y90W, T93F
B13: Mutation 1-13 (antibody, V domains shown)
VH: B1 VH with V34I, N54E, L59I, Y64F, V101Y
VL: B1 VL with V53L, Y90W, T93Y
B14: Mutation 1-16 (antibody, V domains shown)
VH: B1 VH with V34I, N54E, Y64F, T98S
VL: B1 VL with Y90W, T93Y
B15: WT 1-20 (antibody, V domains shown)
VH: B1 VH with D31E, V34I, N54D, Y64V, T98S, V101F
VL: B1 VL with R30K, D49E, V53I, V57F, Y90Q, T93Y
B16: Mutation 1-8 (antibody, V domains shown)
VH: B1 VH with V34L, N54E, L59I, Y64F, V101Y
VL: B1 VL with S27T, Y90W, T93F
B17: Mutation 1-21 (antibody, V domains shown)
VH: B1 VH with N54E, L59I, Y64F, T98S, V101F
VL: B1 VL with V53L, Y90W, T93F
B18: Mutation 1-14 (antibody, V domains shown)
VH: B1 VH with V34L, N54E, Y64F, T98S
VL: B1 VL with S27T, Y90W, T93F
B19: Mutation 1-7 (antibody, V domains shown)
VH: B1 VH with V34I, N54E, Y64F, V101F
VL: B1 VL with V53L, Y90W, T93Y
B20: Mutation 1-22 (antibody, V domains shown)
VH: B1 VH with V34I, N54E, Y64F, T98S, V101Y
VL: B1 VL with S27T, V53L, Y90W, T93F
B21: Mutation 1-4 (antibody, V domains shown)
VH: B1 VH with V34I, N54E, Y64F, T98S, V101F
VL: B1 VL with V53L, Y90W, T93Y
B22: Mutation 1-12 (antibody, V domains shown)
VH: B1 VH with N54E, Y64F, V101F
VL: B1 VL with S27T, V53I, Y90W
B23: Mutation 1-17 (antibody, V domains shown)
VH: B1 VH with V34L, N54E, L59I, Y64F, T98S, V101F
VL: B1 VL with S27T, V53I, Y90W, T93F
B24: Mutation 1-18 (antibody, V domains shown)
VH: B1 VH with N54E, Y64F, T98S
VL: B1 VL with V53L, Y90W
B25: Mutation 1-1 (antibody, V domains shown)
VH: B1 VH with V34I, N54E, L59I, Y64F, V101F
VL: B1 VL with S27T, V53L, Y90W, T93Y
B26: Mutation 1-20 (antibody, V domains shown)
VH: B1 VH with N54E, Y64F, T98S, V101Y
VL: B1 VL with Y90W
B27: Mutation 1-9 (antibody, V domains shown)
VH: B1 VH with N54E, Y64F, T98S
VL: B1 VL with V53I, Y90W
B28: Mutation 1-3 (antibody, V domains shown)
VH: B1 VH with N54E, L59I, Y64F, T98S
VL: B1 VL with S27T, V53I, Y90W
B29: Mutation 1-19 (antibody, V domains shown)
VH: B1 VH with V34I, N54E, L59I, Y64F, T98S, V101F
VL: B1 VL with S27T, Y90W, T93Y

Positions count from the first letter of the chain named.

For the first test, the target named is DN-III-NS antigen (produced by Fapon Biotech InC.) (dengue virus). Kind of test: capture ELISA, antibody sample 729-fold dilution. On the technique in general: An ELISA detects its analyte on a solid surface through an enzyme-linked reagent.
Turning to B1, the OD450 (ref. 630 nm) amounted to 0.158 OD.
The same measure, in the same setting: the same measure for B2: 0.169 OD.

For another test the target is unchanged. Kind of test: capture ELISA, antibody sample 27-fold dilution.
As to B1, the OD450 (ref. 630 nm) amounted to 1.56 OD.
Take B2: the OD450 (ref. 630 nm) was 1.57 OD.
The same measure, in the same setting: the same measure for B3: 0.031 OD.

Another test shares this target. The experiment in a line: capture ELISA, antibody sample 243-fold dilution.
In turn, B1 returned an OD450 (ref. 630 nm) of 0.204 OD.
B2 registered an OD450 (ref. 630 nm) of 0.281 OD.

A further test shares this target. Kind of test: capture ELISA, antibody sample 9-fold dilution.
As for B1, the OD450 (ref. 630 nm) worked out at 2.13 OD.
B2 registered an OD450 (ref. 630 nm) of 2.22 OD.
As to B3, the OD450 (ref. 630 nm) came to 0.21 OD.
For the molecule B4, the OD450 (ref. 630 nm) worked out at 0.014 OD.

For the next test the target is unchanged. Kind of test: capture ELISA, antibody sample 3-fold dilution.
Molecule B1 came in with an OD450 (ref. 630 nm) of 2.25 OD.
On to B2, for which the OD450 (ref. 630 nm) worked out at 2.31 OD.
In the case of B3, the OD450 (ref. 630 nm) was 0.879 OD.
On the same count and under the same terms, the same measure for B4: 0.102 OD.

For another test the target is unchanged. Kind of test: capture ELISA, antibody sample 81-fold dilution.
The molecule B1 registered an OD450 (ref. 630 nm) of 0.689 OD.
In turn, B2 had an OD450 (ref. 630 nm) of 0.696 OD.

In another test the target is DN-III quality control recombinant protein (produced by Fapon Biotech InC.) (dengue virus). The experiment in a line: BLI, AMC sensor, antibody captured. For orientation: In BLI a coated tip is dipped into the sample, and binding shifts an interference pattern.
Broadly, the Kd is the concentration at which binding is half-saturated. What is called koff is the rate constant with which the complex falls apart. A word on the kon: it is the rate constant with which the complex forms. Regarding B5, the Kd was determined as 3.7 nM, the koff turned out to be 1.53e-05 s⁻¹ and the kon worked out at 4090 M⁻¹ s⁻¹.
As to B6, the Kd is 1.14 nM, the koff worked out at 4.21e-05 s⁻¹ and the kon is 36900 M⁻¹ s⁻¹.
With B7, the Kd was 0.43 nM, the koff was 2.11e-05 s⁻¹ and the kon turned out to be 49700 M⁻¹ s⁻¹.
For the molecule B8, the equilibrium dissociation constant (Kd) is 11.9 nM, the koff was found to be 4.95e-05 s⁻¹ and the kon came out at 4150 M⁻¹ s⁻¹.
On the same counts, the results for B9 are 0.8 nM, 3.72e-05 s⁻¹ and 46700 M⁻¹ s⁻¹.
On the same counts, the results for B10 are 0.103 nM, 4.99e-05 s⁻¹ and 483000 M⁻¹ s⁻¹.
For B11, the Kd worked out at 0.42 nM, the koff was found to be 1.89e-05 s⁻¹ and the kon was 45200 M⁻¹ s⁻¹.
On the same counts, the results for B12 are 0.87 nM, 2.83e-05 s⁻¹ and 32400 M⁻¹ s⁻¹.
On the same counts, the results for B13 are 0.49 nM, 2.08e-05 s⁻¹ and 42400 M⁻¹ s⁻¹.
Take B14: the Kd came out at 0.8 nM, the koff came to 3.04e-05 s⁻¹ and the kon came out at 38100 M⁻¹ s⁻¹.
B15: the Kd came out at 5.3 nM, the koff is 1.64e-05 s⁻¹ and the kon was 3120 M⁻¹ s⁻¹.
B16: the Kd is 0.7 nM, the dissociation rate constant (koff) stood at 2.33e-05 s⁻¹ and the kon was 33200 M⁻¹ s⁻¹.
Turning to B17, the Kd came out at 0.66 nM, the koff came to 1.31e-05 s⁻¹ and the kon was found to be 32300 M⁻¹ s⁻¹.
With B18, the Kd turned out to be 0.111 nM, the koff stood at 4.53e-05 s⁻¹ and the kon worked out at 408000 M⁻¹ s⁻¹.
Consider B2, for which the Kd worked out at 3.09 nM, the koff was 0.000137 s⁻¹ and the kon came out at 44300 M⁻¹ s⁻¹.
On the same counts, the results for B19 are 0.11 nM, 3.91e-05 s⁻¹ and 357000 M⁻¹ s⁻¹.
On the same counts, the results for B20 are 0.87 nM, 3.2e-05 s⁻¹ and 48400 M⁻¹ s⁻¹.
On the same counts, the results for B21 are 0.29 nM, 1.04e-05 s⁻¹ and 36200 M⁻¹ s⁻¹.
In the case of B22, the Kd came out at 1.09 nM, the koff came to 4.55e-05 s⁻¹ and the kon was 41800 M⁻¹ s⁻¹.
On the same counts, the results for B23 are 0.78 nM, 2.71e-05 s⁻¹ and 34600 M⁻¹ s⁻¹.
On the same counts, the results for B24 are 0.9 nM, 3.99e-05 s⁻¹ and 44500 M⁻¹ s⁻¹.
Turning to B25, the Kd was found to be 0.72 nM, the koff came to 2.38e-05 s⁻¹ and the kon was 33100 M⁻¹ s⁻¹.
In the case of B26, the Kd was 0.41 nM, the koff was 1.66e-05 s⁻¹ and the kon stood at 40900 M⁻¹ s⁻¹.
On the same counts, the results for B27 are 0.45 nM, 1.35e-05 s⁻¹ and 30100 M⁻¹ s⁻¹.
For B28, the equilibrium dissociation constant (Kd) came to 0.32 nM, the koff stood at 1.51e-05 s⁻¹ and the kon stood at 47400 M⁻¹ s⁻¹.
For the molecule B29, the dissociation constant Kd amounted to 4.1 nM, the koff is 4.34e-05 s⁻¹ and the kon was 31400 M⁻¹ s⁻¹.

A further test deals with DN-III-NS antigen (produced by Fapon Biotech InC.) (dengue virus). Kind of test: capture ELISA (anti-mouse IgG / antibody / antigen / HRP-mAb), antibody sample Original.
Regarding B1, the OD450 (ref. 630 nm) worked out at 2.27 OD.
Molecule B2 had an OD450 (ref. 630 nm) of 2.34 OD.
Still for that read-out and setting: the same measure for B3: 1.05 OD; for B4: 0.892 OD.

The record behind these values is patent US20240158475A1.
